Target: T1, CasEnd-16 (synthetic construct)
T1 chain: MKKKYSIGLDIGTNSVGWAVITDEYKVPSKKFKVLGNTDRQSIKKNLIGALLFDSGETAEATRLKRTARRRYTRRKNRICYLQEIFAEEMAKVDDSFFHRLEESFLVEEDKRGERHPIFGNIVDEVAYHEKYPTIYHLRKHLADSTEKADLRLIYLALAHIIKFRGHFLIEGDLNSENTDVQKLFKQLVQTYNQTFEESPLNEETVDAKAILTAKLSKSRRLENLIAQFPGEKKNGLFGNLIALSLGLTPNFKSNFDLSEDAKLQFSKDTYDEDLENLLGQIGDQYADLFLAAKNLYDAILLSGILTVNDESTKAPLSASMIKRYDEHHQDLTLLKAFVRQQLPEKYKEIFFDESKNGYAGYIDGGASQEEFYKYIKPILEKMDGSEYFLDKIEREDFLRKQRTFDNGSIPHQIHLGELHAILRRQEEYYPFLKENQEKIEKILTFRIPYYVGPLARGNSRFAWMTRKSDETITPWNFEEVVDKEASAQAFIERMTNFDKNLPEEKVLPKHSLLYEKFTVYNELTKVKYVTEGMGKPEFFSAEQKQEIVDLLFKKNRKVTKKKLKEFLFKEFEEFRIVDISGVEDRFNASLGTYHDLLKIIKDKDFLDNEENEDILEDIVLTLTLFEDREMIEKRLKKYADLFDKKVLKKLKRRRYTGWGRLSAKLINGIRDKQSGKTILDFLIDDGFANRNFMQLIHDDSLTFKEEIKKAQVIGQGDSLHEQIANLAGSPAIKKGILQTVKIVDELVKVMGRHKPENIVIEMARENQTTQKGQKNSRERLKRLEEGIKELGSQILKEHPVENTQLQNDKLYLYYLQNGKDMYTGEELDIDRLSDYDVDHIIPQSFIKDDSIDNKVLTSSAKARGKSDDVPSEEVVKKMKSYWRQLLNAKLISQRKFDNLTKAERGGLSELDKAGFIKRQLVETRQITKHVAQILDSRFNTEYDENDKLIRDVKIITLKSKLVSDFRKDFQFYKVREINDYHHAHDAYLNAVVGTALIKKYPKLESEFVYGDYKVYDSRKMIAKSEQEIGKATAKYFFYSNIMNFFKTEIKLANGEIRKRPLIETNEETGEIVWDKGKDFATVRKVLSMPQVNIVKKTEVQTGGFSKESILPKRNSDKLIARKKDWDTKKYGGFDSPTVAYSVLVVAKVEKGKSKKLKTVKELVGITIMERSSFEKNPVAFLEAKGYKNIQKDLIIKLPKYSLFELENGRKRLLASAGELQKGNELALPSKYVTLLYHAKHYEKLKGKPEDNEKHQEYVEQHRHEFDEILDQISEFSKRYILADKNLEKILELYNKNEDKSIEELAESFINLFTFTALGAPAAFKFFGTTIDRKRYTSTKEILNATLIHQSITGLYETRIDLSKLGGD
Test: cell_activity; +++; HEK293T; PAM not stated
Procedure, shortened: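 Editing activity was scored as the fraction of GFP+ cells on day 4 by flow cytometry. BFP-expressing HEK293T cells (250,000) received by nucleofection 200 ng plasmid for the RT-Cas fusion protein and 200 ng template RNA plasmid designed to convert BFP to GFP.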

B1: BFP-to-GFP template RNA ; BFP reporter protospacer (ssRNA ; dsDNA)
RNA: GCCGAAGCACUGCACGCCGUGUUUUAGAGCUAGAAAUAGCAAGUUAAAAUAAGGCUAGUCCGUUAUCAACUUGAAAAAGUGGCACCGAGUCGGUGCACCCUGACGUACGGCGUGCAGUGCUU
DNA 1: GCCGAAGCACTGCACGCCGT
DNA 2: ACGGCGTGCAGTGCTTCGGC
B1 was tested, and the activity was ≥ 100 % of reference.

Reference: US20250092426, “CAS ENDONUCLEASES AND RELATED METHODS” (Flagship Pioneering Innovations VII, LLC, published 2025)
